Results as given in US9731031B2, “Conjugate comprising oxyntomodulin and an immunoglobulin fragment, and use thereof” (Hanmi Science Co., Ltd., dated 2017).
Where no end group is shown, it is not given here. [ ]: non-standard residue; d: D form. The star is where a group is joined. Acetyl(2-(4-imidazolyl)) = O=C(Cc1c[nH]cn1)*; Aib = CC(C)(N)C(=O)O

B1: oxyntomodulin derivative of SEQ ID NO. 11 (peptide)
peptide: HGEGTFTSDLSRQMEEEAVRLFIEWAAHSQGTFTSDYSRYLDK
modifications: not fully specified (residue 1, N-terminus); also: N-terminal CA (4-imidazoacetyl), whether it replaces His1 not given here
B2: oxyntomodulin derivative of SEQ ID NO. 6 (peptide)
peptide: HGEGTFTSDLSRQMEEEAVRLFIEWAAHSQGTFTSDYSKYLD
modifications: not fully specified (residue 1, N-terminus); also: N-terminal CA (4-imidazoacetyl), whether it replaces His1 not given here
B3: oxyntomodulin derivative of SEQ ID NO. 17 (peptide)
peptide: HSQGTFTSDYSRYLDEEAVRLFIEWIRNTKRNRNNIA
modifications: not fully specified (residue 1, N-terminus); also: N-terminal CA (4-imidazoacetyl), whether it replaces His1 not given here

target: human GLP-1 receptor (human, UniProt P43220); assay: cell-based or functional assay

Q: For B1, which “EC50 (nM), cAMP” value is on record?
A: > 1000 nM

Q: With HSQGTFTSDYSRYLDEEAVELFIEWLMNTK [oxyntomodulin derivative of SEQ ID NO. 13] as the binder, how does the “EC50 (nM), cAMP” value read?
A: > 1000 nM

Q: How did the “EC50 (nM), cAMP” value turn out when H[Aib]QGTFTSDYSKYLDEKRAKEFVCWLMNT (also: ring between residues marked, places not visible) [oxyntomodulin derivative of SEQ ID NO. 23] was run?
A: 2.46 nM

Q: H[Aib]QGTFTSDYSKYLDEKRAKEFVQWLMNTC (also: ring between residues marked, places not visible) [oxyntomodulin derivative of SEQ ID NO. 24] was tested. Which “EC50 (nM), cAMP” value did it give?
A: 1.43 nM

Q: How did the “EC50 (nM), cAMP” value turn out when H[Aib]QGTFTSDYSKYLDEKRAKEFVQWLMNTC (also: ring between residues marked, places not visible) [oxyntomodulin derivative of SEQ ID NO. 25] was run?
A: 1.9 nM

Q: How did the “EC50 (nM), cAMP” value turn out when [Acetyl(2-(4-imidazolyl))][Aib]QGTFTSDYSKYLDEKRAKEFVQWLMNTC (also: ring between residues marked, places not visible) [oxyntomodulin derivative of SEQ ID NO. 32] was run?
A: 14.2 nM

Q: Which “EC50 (nM), cAMP” value does the source give for H[Aib]QGTFTSDYAKYLDEKRAKEFVQWLMNTC (also: ring marking not visible) [oxyntomodulin derivative of SEQ ID NO. 33] here?
A: 2.2 nM

Q: Which “EC50 (nM), cAMP” value does the source give for Y[Aib]QGTFTSDYSKYLDEKRAKEFVQWLMNTC (also: ring marking not visible) [oxyntomodulin derivative of SEQ ID NO. 34] here?
A: 12.5 nM

Q: [Acetyl(2-(4-imidazolyl))]SQGTFTSDYSKYLDERRAQDFVAWLKNTGPSSGAPPPS (also: N-terminal CA (4-imidazoacetyl), whether it replaces His1 not given here) [oxyntomodulin derivative of SEQ ID NO. 3] was tested. Which “EC50 (nM), cAMP” value did it give?
A: > 1000 nM

target: human glucagon receptor (human, UniProt P47871); assay: cell-based or functional assay

Q: B2 was tested. Which “EC50 (nM), cAMP” value did it give?
A: > 1000 nM

Q: How did the “EC50 (nM), cAMP” value turn out when [Acetyl(2-(4-imidazolyl))]SQGTFTSDLSRQLEEEAVRLFIEWLMNK (also: N-terminal CA (4-imidazoacetyl), whether it replaces His1 not given here) [oxyntomodulin derivative of SEQ ID NO. 8] was run?
A: > 1000 nM

Q: With B1 as the binder, how does the “EC50 (nM), cAMP” value read?
A: > 1000 nM

Q: How did the “EC50 (nM), cAMP” value turn out when HSQGTFTSDYSRYLDEEAVELFIEWLMNTK [oxyntomodulin derivative of SEQ ID NO. 13] was run?
A: > 1000 nM

Q: Which “EC50 (nM), cAMP” value does the source give for B3 here?
A: > 1000 nM

Q: Which “EC50 (nM), cAMP” value does the source give for [Acetyl(2-(4-imidazolyl))]SQGTFTSDYSRYLDEEAVRLFIEWIRNGGPSSGAPPPSK (also: N-terminal CA (4-imidazoacetyl), whether it replaces His1 not given here) [oxyntomodulin derivative of SEQ ID NO. 18] here?
A: > 1000 nM

Q: For H[Aib]QGTFTSDYSKYLDEKRAKEFVCWLMNT (also: ring between residues marked, places not visible) [oxyntomodulin derivative of SEQ ID NO. 23], which “EC50 (nM), cAMP” value is on record?
A: 5.8 nM

Q: For H[Aib]QGTFTSDYSKYLDEKRAKEFVQWLMNT (also: ring between residues marked, places not visible) [oxyntomodulin derivative of SEQ ID NO. 28], which “EC50 (nM), cAMP” value is on record?
A: 0.3 nM

Q: How did the “EC50 (nM), cAMP” value turn out when [Acetyl(2-(4-imidazolyl))][Aib]QGTFTSDYSKYLDEKRAKEFVQWLMNTC (also: ring between residues marked, places not visible) [oxyntomodulin derivative of SEQ ID NO. 32] was run?
A: 17.3 nM

Q: With H[Aib]QGTFTSDYAKYLDEKRAKEFVQWLMNTC (also: ring marking not visible) [oxyntomodulin derivative of SEQ ID NO. 33] as the binder, how does the “EC50 (nM), cAMP” value read?
A: 80.2 nM

Q: How did the “EC50 (nM), cAMP” value turn out when Y[Aib]QGTFTSDYSKYLDEKRAKEFVQWLMNTC (also: ring marking not visible) [oxyntomodulin derivative of SEQ ID NO. 34] was run?
A: 1 nM
